Results: US5723299A, “Somatostatin receptors” (Arch Development Corporation, priority 1995, dated 1998)

Molecular target: T1, hGPR81 (SSTR1) (Homo sapiens, UniProt P30872)
T1 construct: in vitro transcribed RNA injected into Xenopus laevis oocytes
Assay: Ca^2+ efflux in oocytes injected with hGPR81 RNA
Format: cell-based
Details: laevis oocytes injected with in vitro transcribed RNA
Procedure: Since the presence of a short cytoplasmic loop connecting transmembrane segments M5-M6 is a feature of G protein-coupled receptors that bind peptide hormones and neuropeptides (E. M. Ross, 1990), peptides known to regulate hormone secretion from pancreatic islets were tested as ligands for hGPR81. Initial attempts to identify the ligand for hGPR81 by injecting RNA transcribed in vitro into fenopus laevis oocytes (Kayano et al., 1990) and assessing changes in basal or stimulated cAMP levels in response to […] [calcitonin-gene-related peptide, gastric inhibitory polypeptide, glucagon, glucagon-like peptide 1-(7-36 amide), and vasoactive intestinal peptide], or Ca^2+ efflux (Williams et al., 1988) (angiotensin II, bombesin, cholecystokinin, and vasopressin) were unsuccessful. The binding of radiolabeled peptides (galanin, glucagon and somatostatin) to COS-7 cells transiently expressing hGPR81 was attempted, as well.

T1 sequence (P30872 whole entry): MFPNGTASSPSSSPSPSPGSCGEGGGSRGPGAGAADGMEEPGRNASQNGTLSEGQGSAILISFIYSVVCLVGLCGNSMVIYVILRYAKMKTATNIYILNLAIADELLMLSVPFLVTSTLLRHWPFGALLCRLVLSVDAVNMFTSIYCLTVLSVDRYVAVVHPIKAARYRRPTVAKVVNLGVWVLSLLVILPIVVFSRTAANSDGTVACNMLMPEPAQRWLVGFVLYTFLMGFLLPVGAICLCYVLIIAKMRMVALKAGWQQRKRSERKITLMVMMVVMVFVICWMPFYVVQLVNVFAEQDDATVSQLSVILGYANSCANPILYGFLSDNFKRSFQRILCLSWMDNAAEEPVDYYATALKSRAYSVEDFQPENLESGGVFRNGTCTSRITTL

B1: cholecystokinin: peptide known to regulate hormone secretion from pancreatic islets (peptide, UniProt P06307 21-115, looked up)
Cholecystokinin: QPVPPADPAGSGLQRAEEAPRRQLRVSQRTDGESRAHLGALLARYIQQARKAPSGRMSIVKNLQNLDPSHRISDRDYMGWMDFGRRSAEEYEYPS
modifications: Cholecystokinin
notes: peptide known to regulate hormone secretion from pancreatic islets
identification as ligand for hGPR81 by Ca^2+ efflux: unsuccessful
